Earlier results, collected in article PMC2645917 (Journal of medicinal chemistry, 2008).

Conditions: in vivo, iv

exenatide
Half-life after i.v. injection: 26 min
